T1: human Notch2 NRR-Fc (Homo sapiens, UniProt Q04721)
T1 construct: Expression constructs encoding human Notch1 and Notch2 NRR regions, fused with human IgG1 Fc fragments; made in house; host or cells: CHO-PACE cells
T1 sequence (Q04721 1425-1677 limits assumed): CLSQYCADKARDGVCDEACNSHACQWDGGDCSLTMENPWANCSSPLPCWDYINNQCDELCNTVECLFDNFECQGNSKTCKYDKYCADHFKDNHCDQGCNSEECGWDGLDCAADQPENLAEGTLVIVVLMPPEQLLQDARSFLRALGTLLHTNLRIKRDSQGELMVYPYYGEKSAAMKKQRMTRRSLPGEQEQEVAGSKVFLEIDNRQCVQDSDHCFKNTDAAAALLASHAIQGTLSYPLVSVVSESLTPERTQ

T2: human Notch1 NRR-Fc (Homo sapiens, UniProt P46531)
T2 construct: Expression constructs encoding human Notch1 and Notch2 NRR regions, fused with human IgG1 Fc fragments; made in house; host or cells: CHO-PACE cells
T2 sequence (P46531 1446-1733 limits assumed): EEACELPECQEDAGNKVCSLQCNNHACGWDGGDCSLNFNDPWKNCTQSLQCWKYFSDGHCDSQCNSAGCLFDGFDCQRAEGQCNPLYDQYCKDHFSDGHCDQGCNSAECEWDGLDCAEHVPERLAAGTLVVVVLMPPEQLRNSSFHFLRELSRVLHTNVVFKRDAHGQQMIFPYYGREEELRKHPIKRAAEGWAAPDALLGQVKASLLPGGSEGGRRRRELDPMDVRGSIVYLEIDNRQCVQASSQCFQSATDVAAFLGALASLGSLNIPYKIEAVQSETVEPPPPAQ

T3: human Notch3 NRR recombinant protein (Homo sapiens, UniProt Q9UM47)
T3 construct: made in house
T3 sequence (Q9UM47 with tags, fused parts or gaps): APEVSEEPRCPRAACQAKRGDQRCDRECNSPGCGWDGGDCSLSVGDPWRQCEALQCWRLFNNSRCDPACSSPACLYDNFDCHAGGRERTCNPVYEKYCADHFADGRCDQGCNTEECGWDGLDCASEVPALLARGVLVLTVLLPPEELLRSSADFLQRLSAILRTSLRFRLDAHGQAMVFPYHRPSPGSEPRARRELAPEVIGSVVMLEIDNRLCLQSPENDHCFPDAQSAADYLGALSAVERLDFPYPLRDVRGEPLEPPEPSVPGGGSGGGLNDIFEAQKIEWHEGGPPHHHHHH


Assays:
human Notch2 NRR-Fc = molecular target: T1, human Notch2 NRR-Fc; assay: Binding to Notch2 NRR-Fc; conditions: N/B = non-binding
From the text: (§1) Other members of the Notch receptor family play important roles in biological processes. For example, a Notch1 or Notch2 deficiency leads to embryonic death in mouse models. In contrast, a Notch4 deficiency results in no detectable phenotype in mouse models. The closest homologues of the Notch3 NRR region are Notch1 and Notch2 (˜50% homology), and Notch4 is a more distant homologue (˜30% homology). Cross-reactivity of anti-Notch3 antibodies to other members of the Notch family, especially Notch1 and 2, may lead to undesired effects in patients. Therefore, the potential cross-reactivity of r28 and hu28, along with r75 and hu75 to other Notch family members were assessed.
(§2) Expression constructs encoding human Notch1 and Notch2 NRR regions, fused with human IgG1 Fc fragments were stably introduced into CHO-PACE cells. Conditioned media from these cells expressing NRR-Fc fusions were collected. Human Notch2 NRR-Fc and human Notch1 NRR-Fc were purified by protein A affinity followed by size exclusion chromatography (SEC). Purified preparations were dialysed into TBS with 1 mM CaCl2 and analyzed on analytical SEC to be >99% in purity.

human Notch1 NRR-Fc = molecular target: T2, human Notch1 NRR-Fc; assay: Binding to Notch1 NRR-Fc; conditions: N/B = non-binding
From the text: as §1, §2

[1] = Thermal stability by differential scanning calorimetry (DSC); format: physicochemical; conditions: 0.3 mg/ml in PBS
Method: There is a positive correlation between the thermal stability of a protein or protein domain with the overall stability of the protein or protein domain. A higher melting point of a protein or protein domain often provides improved manufacturability and longer shelf life. Differential scanning calorimetry (DSC) was used to assess the thermal stability of hu28 and hu75 versus ch28 and ch75, respectively. Protein samples were diluted in PBS to 0.3 mg/ml in a volume of 250 μl. The corresponding formulation buffer blank was used for the reference sample. Both samples were thoroughly degassed using a MicroCal ThermoVac Sample Degassing and Thermostat (Microcal, Inc., Northampton, Mass.) set to 8° C. Samples were dispensed into the appropriate cells of a MicroCal VP-DSC Capillary Cell MicroCalorimter (MicroCal, Inc., Northampton, Mass.). Samples were equilibrated for 4 minutes at 15° C. and then scanned up to 100° C. at a rate of 100° C. per hour. A filtering period of 20 seconds was selected. Raw data was baseline corrected and the protein concentration was normalized. Origin Software (OriginLab Corporation, Northampton, Mass.) was used to fit the data to an MN2-State Model with an appropriate number of transitions.

[2] = molecular target: T3, human Notch3 NRR recombinant protein; assay: Surface plasmon resonance (Biacore) kinetic analysis; format: binding; conditions: antibody captured; 1:1 Langmuir model
Method: The kinetic constants of the anti-Notch3 NRR interactions were determined by surface plasmon resonance (Biacore® T100, Biacore Inc., Piscataway, N.J.). Flow cells of a CM5 chip were immobilized with approximately 10,000 response units (RU) of anti-human IgG-Fc (Biacore®) in 10 mM Glycine, pH 5.0 at 10 μl/min for 600 seconds. 10 μg/ml of anti-Notch3 antibodies ch28 and hu28, and ch75 and hu75 were diluted in TBS with 1 mM CaCl2 were captured at 10 μl/min. Association of four concentrations of human Notch3 NRR recombinant protein (from 3.7-100 nM) and a zero concentration (running buffer) at 100 μl/min were recorded for 3 minutes in TBS with 1 mM CaCl2. Dissociation of the complexes was measured for 10 minutes. The surface of the chip was regenerated by injecting 3M MgCl2 with 3 mM EGTA for 60 seconds at 10 μl/min. Curves obtained after subtraction of the reference and buffer signals were fitted to a 1:1 Langmuir binding model with Biacore® T100 Evaluation Software (Biacore®).

| Binding to Notch2 NRR-Fc (human Notch2 NRR-Fc) | Binding to Notch1 NRR-Fc (human Notch1 NRR-Fc) | ka [2] | kd [2] | Molecule | Tm ± Standard Deviation, CH2 [1] | Tm ± Standard Deviation, CH3 [1] | Tm ± Standard Deviation, Fab [1] |
| --- | --- | --- | --- | --- | --- | --- | --- |
| N/B | N/B | 57000 M⁻¹ s⁻¹ | 0.000992 s⁻¹ | ch75: rat-human chimeric anti-Notch3 antibody 75, rat variable regions fused with human IgG1 and human kappa (antibody, V domains shown) VH: QVKLLQSGAALVKPGASVKMSCKASGYAFTDYWVTWVKQSHGKSLEWIGEISPNSGGTNFNEKFKGKATLTVDKSTSTAYMELSRLTSEDSAIYYCTRGEIRYNWFAYWGQGTLVTVSS VL: NIVMTQSPKSMSISVGDRVTMNCKASQNVGNNIAWYQQKPGQSPKLLIYYASNRYTGVPDRFTGGGYGTDFTLTINSMQAEDAAFYYCQRLYNSPFTFGSGTKLEIK | 73.32 ± 0.01 °C | 84.59 ± 0.03 °C | 73.32 ± 0.01 °C |
| N/B | N/B | 386000 M⁻¹ s⁻¹ | 0.000347 s⁻¹ | hu28 VH1.0/VL1.0: humanized r28 variant VH1.0/VL1.0, anti-Notch3 antibody (VH SEQ ID NO: 13, VL SEQ ID NO: 25) (antibody, V domains shown) VH: EVQLVESGGGLVQPGGSLRLSCAASGFTFRDYGMTWVRQAPGKGLEWVAYISSGSNYIYYAEAVKGRFTISRDNAKNSLYLQMNSLRAEDTAVYYCARRGPFVLDAWGQGTLVTVSS VL: DIQMTQSPSSLSASVGDRVTITCKASQSINRYLHWYQQKPGKAPKLLIYNANGLQTGVPSRFSGSGSGTDFTLTISSLQPEDFATYYCLQHNTWPDTFGGGTKVEIK | 72.63 ± 0.03 °C | 83.45 ± 0.17 °C | 83.45 ± 0.17 °C |

Source: patent US9433687B2, “Anti-Notch3 antibodies and antibody-drug conjugates” (Pfizer Inc., priority 2012, dated 2016)
